The values below come from article PMC9037914 (PLoS Pathogens, 2022).

What all share (assay): cryo-EM structure
In data set [1] the target is T1, Plasmodium falciparum myosin A (P. falciparum, UniProt Q8IDR3 1-818).
T1 construct: also called PfMyoA; MyoA
T1 sequence: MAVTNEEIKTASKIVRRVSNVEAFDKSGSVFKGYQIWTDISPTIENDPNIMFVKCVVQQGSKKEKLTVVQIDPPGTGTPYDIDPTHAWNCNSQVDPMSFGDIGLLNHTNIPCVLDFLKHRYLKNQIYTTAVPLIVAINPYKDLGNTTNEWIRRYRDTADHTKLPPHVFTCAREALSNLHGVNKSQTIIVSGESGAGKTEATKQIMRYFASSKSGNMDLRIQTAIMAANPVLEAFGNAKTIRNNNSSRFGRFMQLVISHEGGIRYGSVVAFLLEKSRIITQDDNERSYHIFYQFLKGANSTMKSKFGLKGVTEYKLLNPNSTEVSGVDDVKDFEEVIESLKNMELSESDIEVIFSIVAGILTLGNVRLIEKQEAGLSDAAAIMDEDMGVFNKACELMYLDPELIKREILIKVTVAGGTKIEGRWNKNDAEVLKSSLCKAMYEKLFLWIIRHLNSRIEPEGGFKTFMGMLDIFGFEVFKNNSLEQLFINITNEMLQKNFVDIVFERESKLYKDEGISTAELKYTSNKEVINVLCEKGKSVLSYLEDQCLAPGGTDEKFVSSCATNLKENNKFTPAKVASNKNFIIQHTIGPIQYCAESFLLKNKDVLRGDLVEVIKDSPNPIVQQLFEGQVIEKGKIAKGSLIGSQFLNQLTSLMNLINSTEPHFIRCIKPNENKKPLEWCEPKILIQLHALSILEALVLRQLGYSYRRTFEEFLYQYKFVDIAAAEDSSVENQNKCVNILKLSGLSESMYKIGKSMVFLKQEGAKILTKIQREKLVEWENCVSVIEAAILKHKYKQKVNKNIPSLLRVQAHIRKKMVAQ
Particulars: both partners purified.

Data set [2] concerns the molecule itself.
For data set [3], the target named is T2, MyoA:ELC:MTIP complex (P. falciparum, UniProt Q8IDR3;Q8IJM4;Q8I4W8).
T2 construct: also called PfMyoA with its two light chains; MyoA:MTIP:ELC complex; copies: + +
T2 sequence 1: T1 sequence
T2 sequence 2: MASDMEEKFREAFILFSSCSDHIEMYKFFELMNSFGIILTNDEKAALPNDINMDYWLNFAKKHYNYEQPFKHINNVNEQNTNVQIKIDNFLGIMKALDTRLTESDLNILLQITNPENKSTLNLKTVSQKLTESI
T2 sequence 3: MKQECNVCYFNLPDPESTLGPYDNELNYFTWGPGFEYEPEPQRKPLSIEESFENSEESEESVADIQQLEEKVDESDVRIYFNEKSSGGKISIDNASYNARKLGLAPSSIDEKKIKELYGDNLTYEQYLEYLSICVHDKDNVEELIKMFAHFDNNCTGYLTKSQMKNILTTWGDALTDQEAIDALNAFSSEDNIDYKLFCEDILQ
To be noted: both partners purified.

B1: Plasmodium falciparum actin 1 filament (natural protein)
chain: not shown
notes: source: polymerised with jasplakinolide
With B1, the binding result in data set [1], in data set [2] and in data set [3] was “binds” in each case.

B2: Plasmodium falciparum essential light chain (natural protein)
chain: T2 sequence 2
notes: also called PfELC; ELC
Turning to B2, the binding result in data set [1] is “binds”.
